In patent publication US20250339558A1:

Molecular target: CD20 (UniProt P11836)
Experiment: cell-based or functional assay

Chain of UniProt P11836 (P11836 whole entry): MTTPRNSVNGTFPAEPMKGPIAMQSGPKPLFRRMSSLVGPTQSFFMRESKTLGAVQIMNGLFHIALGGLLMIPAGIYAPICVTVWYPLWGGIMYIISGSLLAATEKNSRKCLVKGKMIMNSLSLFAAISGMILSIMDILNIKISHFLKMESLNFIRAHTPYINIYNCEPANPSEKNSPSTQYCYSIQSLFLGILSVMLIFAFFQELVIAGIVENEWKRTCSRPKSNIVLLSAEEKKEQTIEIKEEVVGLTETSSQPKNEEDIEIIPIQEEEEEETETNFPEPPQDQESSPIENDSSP

Rituximab (antibody)
CDC Depletion Efficiency (complement-dependent cytotoxicity killing): 60%
